Measurements as given in US5705398A, “Methods for identifying inhibitors of LPS-mediated LBP binding” (The Scripps Research Institute, priority 1994, dated 1998).

T1: LPS-Binding Protein (LBP) (Oryctolagus cuniculus, UniProt P17454)
T1 construct: isolated from acute phase rabbit serum; from tissue; host or cells: acute phase rabbit serum
T1 sequence (P17454 27-482): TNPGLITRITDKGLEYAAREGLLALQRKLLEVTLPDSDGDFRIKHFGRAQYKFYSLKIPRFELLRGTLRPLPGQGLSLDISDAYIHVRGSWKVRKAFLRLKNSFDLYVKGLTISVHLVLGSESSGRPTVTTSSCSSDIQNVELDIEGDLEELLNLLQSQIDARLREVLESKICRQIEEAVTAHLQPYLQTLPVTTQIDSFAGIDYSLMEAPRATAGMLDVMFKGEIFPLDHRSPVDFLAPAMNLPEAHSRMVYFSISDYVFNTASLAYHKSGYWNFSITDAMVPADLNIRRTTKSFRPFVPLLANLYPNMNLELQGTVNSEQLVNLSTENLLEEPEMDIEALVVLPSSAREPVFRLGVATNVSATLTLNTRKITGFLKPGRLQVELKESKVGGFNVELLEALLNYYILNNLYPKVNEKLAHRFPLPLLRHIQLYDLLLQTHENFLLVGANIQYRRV

T2: CD14 (Homo sapiens, UniProt P08571)
T2 construct: made in house; host or cells: CHO cells (clone 523, vector pEE14), secreted into culture medium
T2 sequence (P08571 20-375): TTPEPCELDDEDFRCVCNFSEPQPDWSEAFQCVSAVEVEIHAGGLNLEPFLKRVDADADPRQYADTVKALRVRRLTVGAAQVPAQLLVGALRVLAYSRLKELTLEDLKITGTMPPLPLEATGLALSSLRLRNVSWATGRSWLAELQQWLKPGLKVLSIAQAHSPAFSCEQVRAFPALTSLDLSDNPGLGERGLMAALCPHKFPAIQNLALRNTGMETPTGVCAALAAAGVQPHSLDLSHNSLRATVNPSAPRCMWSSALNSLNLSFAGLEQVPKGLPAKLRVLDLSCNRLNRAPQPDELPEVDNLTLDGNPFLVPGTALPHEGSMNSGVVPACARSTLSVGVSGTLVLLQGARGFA

T3: recombinant human soluble CD14 (Homo sapiens, UniProt P08571)
T3 construct: made in house; host or cells: CHO cells (clone 523, vector pEE14), secreted into culture medium
T3 sequence (P08571 20-375): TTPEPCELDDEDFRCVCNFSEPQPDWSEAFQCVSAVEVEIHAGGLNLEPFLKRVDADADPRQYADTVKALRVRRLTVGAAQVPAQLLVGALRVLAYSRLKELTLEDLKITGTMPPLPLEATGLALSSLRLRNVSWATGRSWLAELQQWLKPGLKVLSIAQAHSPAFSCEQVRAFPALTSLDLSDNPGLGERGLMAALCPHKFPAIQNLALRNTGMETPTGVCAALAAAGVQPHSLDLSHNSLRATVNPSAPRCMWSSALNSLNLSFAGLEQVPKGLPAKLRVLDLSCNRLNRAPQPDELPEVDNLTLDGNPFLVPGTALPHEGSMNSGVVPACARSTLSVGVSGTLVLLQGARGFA


What was measured:
[1] = biological target: T1, LPS-Binding Protein (LBP); experiment: Fluorescence spectroscopy assay of F-LPS binding to LBP; set-up: species or system rabbit; conditions: for fluorescence intensity, +LBP (F-LPS+peptide+LBP): 10 ng/ml F-LPS + 1 mM polypeptide + 1 ug/ml rabbit LBP, no-peptide control 2700 (Experiment A, peptides 1-4), 2300 (Experiment B, peptides 5-8); for fluorescence intensity, +peptide (F-LPS+peptide): 10 ng/ml F-LPS + 1 mM polypeptide, before LBP; for fluorescence intensity, +F-LPS (F-LPS alone): 10 ng/ml F-LPS in PBS/2 mM EDTA pH 7.4, before peptide addition (baseline of the run); for inhibition of LPS binding to LBP (in words): 1 mM polypeptide, from Table 3
Protocol: The fluorescence spectroscopy assay method detects the intensity of fluorescence of fluoresceinated LPS in the presence of LBP.
The assay reaction admixture was prepared by admixing 10 ng/ml F-LPS and 1 ug/ml rabbit LBP into a solution of phosphate buffered saline (PBS) containing 2 mM EDTA, pH 7.4. The FI was then measured with an SLM 8000 photon counting spectrophotometer (SLM, Urbana, Ill.). A continuous FI output was measured over time while first the F-LPS was added to the PBS/EDTA solution, and then the LBP was added.
To study the effect of an LBP-derived polypeptide upon the effect of LBP on the FI of F-LPS, a polypeptide was added to the assay admixture at a concentration of 1 mM polypeptide prior to the addition of LBP, which was typically added about 30 to 150 seconds after the polypeptide was added to the admixture.

Human CD14 = experiment: Fluorescence spectroscopy assay of F-LPS binding to soluble CD14 in presence of LBP, with peptides; conditions: for fluorescence intensity, +peptide (F-LPS+peptide): F-LPS + polypeptide, before CD14 and LBP; for fluorescence intensity, +F-LPS (F-LPS alone): before peptide addition (baseline of the run)
Protocol: (§1) The fluorescence spectroscopy assay method also detects the intensity of fluorescence of fluoresceinated LPS in the presence of LBP and soluble CD14.
(§2) The assay to measure binding interactions between CD14 and LPS or LPS-LBP complex was conducted essentially as described in Example 1 with the following exceptions. First, the amount of rabbit LBP in the reaction admixture was 40 ng/ml. Second, soluble CD14 (sCD14) prepared as described in Example 2A was added to the reaction admixture at a concentration of 10 ug/ml prior to addition of the LBP to the reaction admixture. Peptides 6, 7 and 8, whose sequences are shown in Table 2, were each separately added to assay reaction admixtures, and the resulting FI was measured.

CD14 [2] = biological target: T2, CD14; experiment: as above; conditions: for fluorescence intensity, +CD14: 10 ug/ml soluble CD14 added before LBP, no-peptide control 1500; for fluorescence intensity, +LBP: F-LPS + polypeptide + 10 ug/ml sCD14 + 40 ng/ml rabbit LBP, no-peptide control 6300; for inhibition of fluorescence of F-LPS / LPS binding to LBP in presence of LBP and CD14 (in words): from Table 4
Protocol: as §1, §2

[3] = biological target: T3, recombinant human soluble CD14; experiment: F-LPS/CD14 fluorescence assay comparing LBP with other LPS-binding proteins; conditions: 20 ng/ml F-LPS; for effect on FI of F-LPS with CD14 when replacing LBP: protein 300 ng/ml, CD14 0 to 10 ug/ml
Protocol: For the assay, LBP or the other known LPS-binding proteins were added to the admixture at a concentration of 300 nanograms/milliliter (ng/ml) and were separately admixed with varying amounts the recombinant human soluble CD14 ranging in concentration from 0 to 10 micrograms/milliliter (ug/ml).
To this admixture, 20 ng/ml of F-LPS prepared in Example 1 were admixed to form a binding admixture. Fluorescence measurements were then performed as described above to determine the effect of LBP and CD14 on the FI of F-LPS.

CD14 [4] = biological target: T2, CD14; experiment: Competition of non-fluoresceinated LPS with F-LPS in LBP/CD14 binding assay; conditions: similar to FIG. 3 with Re595 LPS

| fluorescence intensity, +LBP (F-LPS+peptide+LBP) [1] [FIU] | fluorescence intensity, +peptide (F-LPS+peptide) [1] [FIU] | fluorescence intensity, +F-LPS (F-LPS alone) [1] [FIU] | inhibition of LPS binding to LBP (in words) [1] | Molecule | further results |
| --- | --- | --- | --- | --- | --- |
| 1500 | 800 | 750 | strongly inhibit LPS binding to LBP | PSSAREPVFRLGVAT [Peptide 6] | fluorescence intensity, +peptide (F-LPS+peptide) (Human CD14): 1300 FIU; fluorescence intensity, +F-LPS (F-LPS alone) (Human CD14): 1200 FIU; fluorescence intensity, +CD14 (CD14 [2]): 1300 FIU; fluorescence intensity, +LBP (CD14 [2]): 3500 FIU; inhibition of fluorescence of F-LPS / LPS binding to LBP in presence of LBP and CD14 (in words) (CD14 [2]): strongly inhibit LPS binding to LBP |
| 2300 | 900 | 800 | – | LQPYLQTLPVTTQIDS [Peptide 4] | – |
| 2300 | 800 | 700 | – | QTHENFLLVGANIQYRRV [Peptide 8] | fluorescence intensity, +peptide (F-LPS+peptide) (Human CD14): 1400 FIU; fluorescence intensity, +F-LPS (F-LPS alone) (Human CD14): 1400 FIU; fluorescence intensity, +CD14 (CD14 [2]): 1500 FIU; fluorescence intensity, +LBP (CD14 [2]): 5400 FIU |
| 800 | 800 | 900 | strongly inhibit LPS binding to LBP | KVRKAFLRLKNSFDL [Peptide 2] | – |
| 2100 | 1300 | 800 | weakly inhibit LPS binding to LBP | CSSDIQNVELDIEGDLEELLNLLQSQIDARLREVLESKI [Peptide 3] | – |
| 1300 | 1600 | 800 | strongly inhibit LPS binding to LBP | ATLTLNTRKIT [Peptide 7] | fluorescence intensity, +peptide (F-LPS+peptide) (Human CD14): 2400 FIU; fluorescence intensity, +F-LPS (F-LPS alone) (Human CD14): 1200 FIU; fluorescence intensity, +CD14 (CD14 [2]): 2000 FIU; fluorescence intensity, +LBP (CD14 [2]): 1500 FIU; inhibition of fluorescence of F-LPS / LPS binding to LBP in presence of LBP and CD14 (in words) (CD14 [2]): strongly inhibit LPS binding to LBP |
| – | – | – | – | apotransferrin | effect on FI of F-LPS with CD14 when replacing LBP [3]: no effect was detected |
| – | – | – | – | lipid A [synthetic lipid A] | inhibition of FI increase by non-fluoresceinated LPS preparations (in words) (CD14 [4]): dose dependent inhibition |
| – | – | – | – | CCCCCCCCCCC[C@@H](O)CC(=O)N[C@H]1[C@H](OC[C@H]2O[C@H](OP(=O)(O)O)[C@H](NC(=O)C[C@H](O)CCCCCCCCCCC)[C@@H](OC(=O)C[C@H](O)CCCCCCCCCCC)[C@@H]2O)O[C@H](CO)[C@@H](OP(=O)(O)O)[C@@H]1OC(=O)C[C@H](O)CCCCCCCCCCC [lipid IVa] | inhibition of FI increase by non-fluoresceinated LPS preparations (in words) (CD14 [4]): dose dependent inhibition |
| 2000 | 750 | 750 | – | GIDYSLMEAPRATA [Peptide 5] | – |
| – | – | – | – | lysozyme | effect on FI of F-LPS with CD14 when replacing LBP [3]: no effect was detected |
| – | – | – | – | LBP: LPS binding protein isolated from acute phase rabbit serum (protein, UniProt P17454 27-482, looked up) Lipopolysaccharide-binding …: TNPGLITRITDKGLEYAAREGLLALQRKLLEVTLPDSDGDFRIKHFGRAQYKFYSLKIPRFELLRGTLRPLPGQGLSLDISDAYIHVRGSWKVRKAFLRLKNSFDLYVKGLTISVHLVLGSESSGRPTVTTSSCSSDIQNVELDIEGDLEELLNLLQSQIDARLREVLESKICRQIEEAVTAHLQPYLQTLPVTTQIDSFAGIDYSLMEAPRATAGMLDVMFKGEIFPLDHRSPVDFLAPAMNLPEAHSRMVYFSISDYVFNTASLAYHKSGYWNFSITDAMVPADLNIRRTTKSFRPFVPLLANLYPNMNLELQGTVNSEQLVNLSTENLLEEPEMDIEALVVLPSSAREPVFRLGVATNVSATLTLNTRKITGFLKPGRLQVELKESKVGGFNVELLEALLNYYILNNLYPKVNEKLAHRFPLPLLRHIQLYDLLLQTHENFLLVGANIQYRRV | maximum FI ([3]; LBP 300 ng/ml, plateau at CD14 about 10 ug/ml): greater than 90,000 fluorescence units |

| Molecule | fluorescence intensity, +LBP (F-LPS+peptide+LBP) [1] [FIU] | fluorescence intensity, +peptide (F-LPS+peptide) [1] [FIU] | fluorescence intensity, +F-LPS (F-LPS alone) [1] [FIU] | inhibition of LPS binding to LBP (in words) [1] | further results |
| --- | --- | --- | --- | --- | --- |
| TNPGLITRITDKGL [Peptide 1] | 2400 | 900 | 900 | – | – |
